Consider seven molecules from publication PMC4980431, “Ctf4 Is a Hub in the Eukaryotic Replisome that Links Multiple CIP-Box Proteins to the CMG Helicase” (Molecular Cell, 2016).

Series [1] deals with budding yeast cells (W303 background). In words: Yeast growth in the presence of hydroxyurea. Format: cell-based. As to the method:
(§1) Yeast growth, two-hybrid analysis, and immunoprecipitation experiments were performed as described in detail previously ([Maculins et al., 2015], [Maric et al., 2014]). A two-hybrid screen against amino acids 461–927 of Ctf4 was performed by the company Hybrigenics.

A further series has as its target T1, Ctf4 471-927 (Ctf4CTD) (Saccharomyces cerevisiae, UniProt Q01454).
T1 sequence (Q01454 471-927): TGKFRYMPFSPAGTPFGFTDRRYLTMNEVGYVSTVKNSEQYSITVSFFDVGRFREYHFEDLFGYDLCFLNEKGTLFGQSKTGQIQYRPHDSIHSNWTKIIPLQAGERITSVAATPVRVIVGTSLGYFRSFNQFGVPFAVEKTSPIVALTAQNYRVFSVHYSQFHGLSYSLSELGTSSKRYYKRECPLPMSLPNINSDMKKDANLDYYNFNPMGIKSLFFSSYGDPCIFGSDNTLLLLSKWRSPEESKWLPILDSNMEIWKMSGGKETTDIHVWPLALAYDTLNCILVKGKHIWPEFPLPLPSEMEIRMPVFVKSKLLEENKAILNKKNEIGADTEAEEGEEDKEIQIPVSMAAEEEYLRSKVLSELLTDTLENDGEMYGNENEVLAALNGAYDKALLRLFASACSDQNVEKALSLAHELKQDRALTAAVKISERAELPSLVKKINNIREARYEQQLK
In words: Fluorescence anisotropy, peptide binding to Ctf4 471-927. Also noted: species or system budding yeast. As to conditions: legend of Figure S3C; 50 nM fluorescein-labeled Dna2 peptide, pH 7.2, 25°C; mean of three independent experiments. As to the method:
The lowest concentration of peptide at which the binding studies could be performed was determined via peptide calibration curves. Fluorescence anisotropy measurements were recorded in a PHERAstar Plus multi-detection plate reader (BMG Labtech) equipped with fluorescence polarization optic module (λex = 485 nm; λem = 520 nm) at 25°C. Each data point is the mean of 200 flashes/well. The voltage gain was set by adjusting the target mP values of fluorescein-labeled peptides relative to that of fluorescein (35 mP). Serial dilutions of Ctf4CTD were made in 20 mM HEPES (pH 7.2), 140 mM KCl, and 5% (w/v) glycerol in the presence of 40 nM (Sld5 and Tof2) or 50 nM (Dna2) fluorescein-labeled peptide. For Dna2 peptide, each data point is the mean of three independent experiments and curve fitting to the experimental data was performed in pro Fit 6.2 (QuantumSoft) using a Levenberg-Marquardt fitting algorithm in combination with a Gaussian error distribution analysis.
(Fluorescence polarisation rises when a labelled molecule tumbles more slowly, as on binding a larger partner.)

For a further series, the system named is Ctf4. Put plainly: Co-purification with Ctf4 from yeast cell extracts. Type of series: cell-based, budding yeast. To be noted: extracts of yeast cells; S phase and G1-phase; immunoblotting. As to the method: Figure 3 Interaction of the Type I CIP-Box Protein Dna2 with Ctf4 Is Important for rDNA Maintenance (A) GAL-DNA2-9MYC CTF4-TAP (YFV22) and GAL-DNA2-9MYC control cells (YFV21) were grown at 30°C in rich medium containing 2% galactose and then treated as in Figure 2D. The Ctf4-TAP was isolated from cell extracts on magnetic beads coupled to IgG. (B) The smallest fragment of Dna2 that interacted with Ctf4 461–927 in the two-hybrid screen (120–456 shown in red) contains a Ctf4-interacting peptide or CIP-box, closely related to those of Sld5 and Pol1 (upper). […] (C) Mutations in the CIP-box of Dna2 abolished the interaction of full-length Dna2 (1–1,522) or Dna2 120–456 to interact with Ctf4 461–927. (D) When soaked into crystals of Ctf4 471–927, the Dna2 CIP-box binds to the helical region of Ctf4, as previously observed for the CIP-boxes of Pol1 and Sld5 ([Simon et al., 2014]). […]
Figure 4 Tof2 and Dpb2 Define a New Class of Type II CIP-Box Proteins that Bind to a Novel Binding Pocket on the Surface of Ctf4 (A) The smallest fragments of Dpb2 and Tof2 that interacted with Ctf4 461–927 in the two-hybrid screen (shown in red) were each found to contain a putative CIP-box with limited homology to the type I CIP-boxes of Sld5, Dna2, and Pol1. […] The indicated proteins were monitored by immunoblotting. […]
For orientation: In western blotting, separated proteins are transferred to a membrane and probed.

Series [2] deals with the molecule itself. Put plainly: SEC-MALS; 100 μl at 2 mg/ml on Superdex S200 HR 10/300 in 20 mM HEPES pH 7.2, 160 mM NaCl, 0.5 ml/min. A general note: SEC sorts molecules by how far they enter the pores of the column.
Another series concerns CMG helicase. Put plainly: Co-purification with CMG helicase from yeast cell extracts. Type of series: cell-based, budding yeast. To be noted: extracts of S phase yeast cells; immunoprecipitation, immunoblotting. As to the method: (D) Cultures of ctf4-4E MCM4-9MYC (YFV13) and MCM4-9MYC control cells (YSS75) were synchronized in G1-phase at 30°C and then released into S phase for 20 min. The Mcm4-9MYC was isolated from cell extracts by immunoprecipitation and the associated proteins monitored by immunoblotting. (E) ctf4-4E is synthetic lethal with mrc1Δ. The cells were processed as in Figure 1A, and the photos in the lower images were taken after 20 hr growth at 30°C (the scale bars represent 50 μm). See also Figure S2. TEXT PRINTED IN THE PICTURE: (C) Ctf4-4E (471-927): 162 kDa
as §1

Substitutions are numbered along the chain they refer to. Names and notes keep the numbering of the source. Where a SMILES comes first, the peptide text is derived from it.

As for `NC(=O)NO` [hydroxyurea], the “sensitivity to hydroxyurea, ctf4-3E cells (in words)” value in series [1] (ctf4-3E cells compared with ctf4Δ, Figure 5F) is “do not share the sensitivity of ctf4Δ cells”. The “sensitivity to hydroxyurea, pol1-4A cells (in words)” value in series [1] (pol1-4A cells, in contrast to ctf4Δ, Figure 1B) is listed as “does not cause sensitivity”.
For orientation: Kd means the free concentration of one partner at which half of the binding sites on the other are occupied at equilibrium, for simple one-to-one binding. As to `CC[C@H](C)[C@H](NC(=O)[C@H](CC(=O)O)NC(=O)[C@H](CC(=O)O)NC(=O)[C@H](CC(C)C)NC(=O)[C@@H](NC(=O)[C@H](CC(=O)O)NC(=O)[C@H](CC(=O)O)NC(=O)[C@@H](NC(=O)[C@H](CC(N)=O)NC(=O)[C@H](CCCNC(=N)N)NC(=O)[C@H](CC(C)C)NC(=O)[C@@H](N)CO)[C@@H](C)CC)[C@@H](C)CC)C(=O)N[C@@H](CCC(=O)O)C(=O)NCC(=O)N[C@@H](CC(=O)O)C(=O)N[C@@H](CC(C)C)C(=O)N[C@H](C(=O)O)[C@@H](C)O` [Dna2 peptide (207-223)] (H-SLRNIDDILDDIEGDLT-OH), the Kd at Ctf4 471-927 (Ctf4CTD) is 229 µM.
For “nuclease/helicase Dna2: multi-functional nuclease/helicase Dna2, expressed in yeast cells”, the “co-purification with Ctf4 (in words)” value with Ctf4 is listed as “co-purified with Ctf4”.

B1: Ctf4-4E 471–927 (domain or fragment, budding yeast, UniProt Q01454 471-927, looked up)
chain: T1 sequence (Q01454 471-927) with L397E, A401E, A427E, I431E
notes: also called Ctf4CTD 4E mutant protein; source: purified protein
The term stoichiometry N denotes a count of units in the complex or per binding partner. Turning to B1, the “stoichiometry N” value in series [2] turned out to be 3.

B2: Ctf4 471–927 (domain or fragment, budding yeast, UniProt Q01454 471-927, looked up)
chain: T1 sequence (Q01454 471-927)
notes: also called Ctf4CTD; source: purified Ctf4CTD protein
In the case of B2, the “stoichiometry N” value in series [2] was 3.

B3: Ctf4-I901E: Ctf4 with glutamate mutation of I901 (protein)
chain: MVSVIDKLVFDFGGKTLVSLAPDNNTLCVANKNGLTKILKTNNPEEEPETLDSSKLVSSIKCYSNSHFLMTTMQGDALRYNIDSSQEELLARFALPLRDCCVIHSGKMAVFGGDDLELILLELDDETHKKHAIKIDEQVSQISYNSQMNILAVSMINGKVQIFSLTSTIPNKVHELNDYIVANSYDDTHRDKILSNMMDDIDKDNDNDLSETADPDENNVADPEFCAANRICTRVAWHPKGLHFALPCADDTVKIFSIKGYSLQKTLSTNLSSTKAHFIDLQFDPLRGTYIAAVDLNNKLTVWNWETSEIHYTREFKRKITNIAWKIQADSKTLDLVLGTWSGSIAIVQNLAESVVSNIPDQSVAESSTKHGLFVDSESDLENLEGNDDINKSDKLFSDITQEANAEDVFTQTHDGPSGLSEKRKYNFEDEEDFIDDDDGAGYISGKKPHNEHSYSRVHKTHSFPISLANTGKFRYMPFSPAGTPFGFTDRRYLTMNEVGYVSTVKNSEQYSITVSFFDVGRFREYHFEDLFGYDLCFLNEKGTLFGQSKTGQIQYRPHDSIHSNWTKIIPLQAGERITSVAATPVRVIVGTSLGYFRSFNQFGVPFAVEKTSPIVALTAQNYRVFSVHYSQFHGLSYSLSELGTSSKRYYKRECPLPMSLPNINSDMKKDANLDYYNFNPMGIKSLFFSSYGDPCIFGSDNTLLLLSKWRSPEESKWLPILDSNMEIWKMSGGKETTDIHVWPLALAYDTLNCILVKGKHIWPEFPLPLPSEMEIRMPVFVKSKLLEENKAILNKKNEIGADTEAEEGEEDKEIQIPVSMAAEEEYLRSKVLSELLTDTLENDGEMYGNENEVLAALNGAYDKALLRLFASACSDQNVEKALSLAHELKQDRALTAAVKESERAELPSLVKKINNIREARYEQQLK
B3: the “association with CMG helicase (in words)” value in the series on CMG helicase is “unable to interact with the CMG helicase”.

B4: tagged form of Tof2: tagged form of Tof2 expressed in budding yeast cells (protein)
chain: MIKMWRLQIVLVPPSAQDIITFLEARLNTPQSVSPMVQYNEDIITHNNSINNCSDPSPTSPSSQNSIQSNRSSDFINYLPNCKKFLHFTDGDNTLLQLSNEILTKFDRLYPNFKESIEIVSLQDRHGCDLDSEFIIKDVFENDGVVLVILKDELDWSRNQHISLLQLARQRRRQDNKPSTKSIVTEKRKKISKEDLSSISNKDTMHLIAKSSLKNNFINKSRVSTPLMNEILPLASKYDALNKEKCPMPLTSTVVASNVHKDVKDHARAKEGVVTQGSDNNKENIPSSTQQQKNDGAKRAESKDLDLLRNSSEDADYEPADENSPQISFDSIDTDFQLSTTSHTNSDMHIQYSNPSSGAHSPRKSSLEIKVQNKKGDDLPLNDKDIGENCRRIEAFSDEEDFNETDNDRADSFINNSKKASMGFRDINSDLDSVSFNSDIENAVQSTQSTKNVVSPPFFPEKELNNRLHQSQGKEALFRLVEKEFPDKSLGAASSTSHAKDVKIQETIRKLNRFKPTGETKVQKRNSITEPYYGKFGIMKKDKPKSITSKGVSLETKHFDDPNTIISGEKFAKFGKIKVKRKTDDVGSKVIEFKRKRNMGNRSLKDIFANAGKPPNAASTIKVVKLMRDPVDNSKDKVEATSNSTAQEQEQVSPKLPVMNSTPGKRKNGQAIPSSLERTPQLKKVKVTRSHSSPSSSSSMSLESSLDSSSSDDSDDDSDSRNVQVKKINFKTSHGPAGNSNGKPMLDVDDNEINTKKYQTPKYVESDEDDQ
modifications: left off: ProteinA, end not stated, kept
notes: tagged form of Tof2 expressed in budding yeast cells
For the molecule B4, the “co-purification with Ctf4 (in words)” value with Ctf4 is “co-purified with Ctf4 in both G1-phase and S phase”. For the same molecule, in the series on CMG helicase, the “association with CMG helicase (in words)” value is “co-purified with the CMG helicase during S phase”.
